Data published in publication PMC2836958 (Molecular Biology of the Cell, 2010).
Read-outs that look alike come from different tables or passages of the source.

B1: GST-Vps20(C) (domain or fragment, S. cerevisiae, UniProt Q04272 101-221, looked up)
chain: QFINGLKNGNEILKKLNKEFSNVDELMDDVQDQIAYQNEINETLSRSLVGTSNYEDDLDKELDALESELNPEKMNNAKVANMPSTEGLPSLPQGEQTEQKEREEFATEERSDTKEPLALLS
B2: GST-CT(Did2) (domain or fragment, S. cerevisiae, UniProt P69771 113-204, looked up)
chain: QQITMIMDKFEQQFEDLDTSVNVYEDMGVNSDAMLVDNDKVDELMSKVADENGMELKQSAKLDNVPEIKAKEVNVDDEKEDKLAQRLRALRG
B3: Ist1 (natural protein, S. cerevisiae, UniProt P53843 1-298, looked up)
chain: MAPSMIPFTIKLKTCLKMCIQRLRYAQEKQQAIAKQSRRQVAQLLLTNKEQKAHYRVETLIHDDIHIELLEILELYCELLLARVQVINDISTEEQLVKEHMDDGINEAIRSLIYAILFVDEVKELSQLKDLMAWKINVEFVNGVIADHIDVPEKIIKKCSPSVPKEELVDLYLKEIAKTYDVPYSKLENSLSSSSSNISSDFSDPSGDIEDNDEEKPILALDNDDNDNADAKHPITVKKPRQNSENIKNELKIPKDIKKEVIEKKQSEKKTTKRKTKKEQENDELDELKKRFDALRRK
B4: GST-Did2 (natural protein, S. cerevisiae, UniProt P69771 1-204, looked up)
chain: MSRNSAAGLENTLFQLKFTSKQLQKQANKASKEEKQETNKLKRALNENEDISRIYASNAIRKKNERLQLLKLASRVDSVASRVQTAVTMRQVSASMGQVCKGMDKALQNMNLQQITMIMDKFEQQFEDLDTSVNVYEDMGVNSDAMLVDNDKVDELMSKVADENGMELKQSAKLDNVPEIKAKEVNVDDEKEDKLAQRLRALRG

Columns and labels:
Assay in all cases: pull-down
Vps4^E233Q [1] = target: T1, Vps4^E233Q (S. cerevisiae, UniProt P52917 1-437, E233Q)
T1 sequence (looked up): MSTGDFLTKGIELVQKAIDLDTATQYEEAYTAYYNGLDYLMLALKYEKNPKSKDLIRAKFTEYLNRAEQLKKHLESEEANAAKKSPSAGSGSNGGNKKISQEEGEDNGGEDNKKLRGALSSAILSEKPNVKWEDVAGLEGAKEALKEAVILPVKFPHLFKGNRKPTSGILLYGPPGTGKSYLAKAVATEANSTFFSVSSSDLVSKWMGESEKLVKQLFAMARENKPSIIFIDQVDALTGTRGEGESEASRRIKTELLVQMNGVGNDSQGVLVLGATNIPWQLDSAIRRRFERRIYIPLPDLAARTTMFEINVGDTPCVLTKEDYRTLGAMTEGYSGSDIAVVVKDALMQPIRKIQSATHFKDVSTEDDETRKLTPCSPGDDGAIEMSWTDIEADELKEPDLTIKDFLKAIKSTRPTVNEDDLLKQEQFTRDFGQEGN

Ist1 = target: B3
Vps4^E233Q [2] = target: T1, Vps4^E233Q; remark: listed apart in the source

Row | Binder | binding result (Ist1) | also measured
1 | B1 |  | binding result (Vps4^E233Q [1]): binds
2 | B2 | binds | 
3 | B3 |  | binding result (Vps4^E233Q [2]): binds
4 | B4 | binds | 
